From patent US20020115140A1 come the findings set out here.

This experiment concerns the target GPA1 protein (yeast) (UniProt P08539). Nature of the experiment: cell-based or functional assay.
Chain of UniProt P08539 (P08539 2-472 limits assumed): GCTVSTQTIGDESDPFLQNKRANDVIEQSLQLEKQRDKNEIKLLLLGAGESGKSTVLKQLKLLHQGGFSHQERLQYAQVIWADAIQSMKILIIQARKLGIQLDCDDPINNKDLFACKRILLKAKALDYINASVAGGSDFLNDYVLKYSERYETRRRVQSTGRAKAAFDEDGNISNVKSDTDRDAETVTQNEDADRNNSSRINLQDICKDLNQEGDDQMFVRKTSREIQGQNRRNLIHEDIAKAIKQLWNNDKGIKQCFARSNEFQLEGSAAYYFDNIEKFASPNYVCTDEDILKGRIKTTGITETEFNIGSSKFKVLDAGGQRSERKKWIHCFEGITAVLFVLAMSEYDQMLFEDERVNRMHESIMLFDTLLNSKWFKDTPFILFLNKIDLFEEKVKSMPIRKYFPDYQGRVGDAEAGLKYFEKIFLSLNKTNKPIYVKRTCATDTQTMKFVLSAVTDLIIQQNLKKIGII

Take “murine RATH1.1 gene product (from UniProt P97428 1-201)”: the diameter of growth inhibition zone; strain MY169 (sst2-, RATH1.1 under ADH2 promoter); 1 µg alpha factor is 0.8 cm; the diameter of growth inhibition zone; strain MY169 (sst2-, RATH1.1 under ADH2 promoter); 10 µg alpha factor is 1.8 cm; the diameter of growth inhibition zone; strain MY173 (SST2+, RATH1.1 under ADH2 promoter); 10 µg alpha factor is 1.6 cm.
